In patent EP1222208B1 (THE GENERAL HOSPITAL CORPORATION, dated 2008):
“And” between values parts separate entries of the source, which are not always exact repeats. Equal values may be shown once. Square brackets hold non-standard residues; d marks the D form. Ends that are not written are not given here. Nle = CCCC[C@H](N)C(=O)O

T1: rat PTH-1 receptor (rat, UniProt P25961 27-591)
T1 sequence (looked up): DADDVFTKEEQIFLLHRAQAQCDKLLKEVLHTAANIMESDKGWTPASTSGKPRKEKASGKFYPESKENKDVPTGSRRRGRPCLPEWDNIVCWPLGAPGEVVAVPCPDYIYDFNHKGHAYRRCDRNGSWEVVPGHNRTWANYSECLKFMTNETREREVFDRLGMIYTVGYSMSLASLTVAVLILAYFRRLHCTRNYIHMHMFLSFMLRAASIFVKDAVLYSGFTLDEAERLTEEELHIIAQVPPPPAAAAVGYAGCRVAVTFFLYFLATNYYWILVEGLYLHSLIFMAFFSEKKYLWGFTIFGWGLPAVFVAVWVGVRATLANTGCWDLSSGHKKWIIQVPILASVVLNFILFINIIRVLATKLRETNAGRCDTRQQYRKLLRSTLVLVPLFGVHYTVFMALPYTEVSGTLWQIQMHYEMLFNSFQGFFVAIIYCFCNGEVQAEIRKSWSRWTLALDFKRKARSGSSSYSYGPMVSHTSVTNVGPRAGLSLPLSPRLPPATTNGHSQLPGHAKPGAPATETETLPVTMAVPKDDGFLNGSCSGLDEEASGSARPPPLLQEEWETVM

T2: human PTH-1 receptor (human, UniProt Q03431 27-593)
T2 sequence (looked up): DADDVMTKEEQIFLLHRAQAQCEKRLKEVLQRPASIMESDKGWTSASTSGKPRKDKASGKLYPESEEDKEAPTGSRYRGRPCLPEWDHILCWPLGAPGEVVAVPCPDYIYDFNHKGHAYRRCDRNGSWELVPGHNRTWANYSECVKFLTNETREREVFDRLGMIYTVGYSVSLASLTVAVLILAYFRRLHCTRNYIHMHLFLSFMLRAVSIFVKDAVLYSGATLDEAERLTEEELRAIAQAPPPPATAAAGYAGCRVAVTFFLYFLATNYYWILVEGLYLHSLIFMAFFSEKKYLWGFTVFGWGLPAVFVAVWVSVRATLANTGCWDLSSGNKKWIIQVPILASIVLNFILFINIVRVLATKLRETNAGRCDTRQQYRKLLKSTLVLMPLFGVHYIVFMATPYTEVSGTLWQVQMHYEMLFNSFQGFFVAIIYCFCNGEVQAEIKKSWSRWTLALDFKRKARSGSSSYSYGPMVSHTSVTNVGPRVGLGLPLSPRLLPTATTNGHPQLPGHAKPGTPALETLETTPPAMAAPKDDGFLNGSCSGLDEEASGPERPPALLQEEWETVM


Experiments:
Test in all cases: cell-based or functional assay
[1] = target: T1, rat PTH-1 receptor
[2] = target: T2, human PTH-1 receptor
[3] = target: T2, human PTH-1 receptor; remark: listed apart in the source
[4] = target: truncated human PTH-1 receptor hΔNt (human), Q03431
[5] = target: T2, human PTH-1 receptor; remark: listed apart in the source
[6] = target: human PTH-2 receptor (human, UniProt P49190 25-550)
Sequence of human PTH-2 receptor (P49190 25-550): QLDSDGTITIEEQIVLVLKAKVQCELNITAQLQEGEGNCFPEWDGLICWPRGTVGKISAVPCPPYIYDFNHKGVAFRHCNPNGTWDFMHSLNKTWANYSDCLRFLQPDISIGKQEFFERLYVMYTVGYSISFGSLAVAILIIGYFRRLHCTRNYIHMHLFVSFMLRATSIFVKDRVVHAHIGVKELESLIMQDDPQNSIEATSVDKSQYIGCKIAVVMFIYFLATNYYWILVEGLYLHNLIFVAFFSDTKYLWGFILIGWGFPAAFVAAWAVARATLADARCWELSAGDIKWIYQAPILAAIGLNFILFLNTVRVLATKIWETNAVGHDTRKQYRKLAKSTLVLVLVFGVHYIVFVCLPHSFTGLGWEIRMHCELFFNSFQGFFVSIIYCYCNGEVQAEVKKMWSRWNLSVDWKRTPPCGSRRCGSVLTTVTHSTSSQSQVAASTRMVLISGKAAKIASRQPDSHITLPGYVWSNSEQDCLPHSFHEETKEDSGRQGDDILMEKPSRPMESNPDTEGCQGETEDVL

[7] = target: T2, human PTH-1 receptor; remark: listed apart in the source

Row | Binder | cAMP EC50, ROS 17/2.8 cells [1] [Log M] | cAMP potency relative to native PTH(1-14), LLC-PK1 cells stably expressing the hPTH-1 receptor [2] [fold] | cAMP EC50, HKRK-B7 cells [3] | cAMP Emax, COS-7 cells, hDeINt (picomole/well) [4] | cAMP EC50, COS-7 cells, WT hPTH-1 receptor [5] | cAMP Emax, COS-7 cells, WT hPTH-1 receptor [5] [picomole/well] | cAMP EC50, LLC-P2R-22 cells [6] | cAMP potency relative to native PTH(1-14), LLC-PK-1 cells stably expressing the hPTH-1 receptor [2] [fold] | cAMP potency relative to native PTH(1-14), truncated hPTH-1 receptor [4] [fold] | cAMP EC50, SAOS-2 cells [7]
1 | AVAEIQLMHARAKW-NH2 [[A3,A10,R11,A12,W14]rPTH(1-14)amide] | -5.5 | 220 | -6.3 Log M and 0.6 µM | – | – | – | – | – | – | –
2 | AVSEIQLMHNLGKH-NH2 [native rat (r)PTH(1-14)NH2] | – | – | -3.9 Log M and 133 µM | 222 | -3.8 Log M and 152 µM | 221 | – | – | – | –
3 | AVAEIQLMHAR-NH2 [[A3,A10,R11]rPTH(1-11)] | – | – | -4.8 Log M and 17.1 µM | 243 | -4.6 Log M and 29.1 µM | 238 | – | – | – | –
4 | AVAEIQLMHARAKH-NH2 [[A3,A10,R11,A12]rPTH(1-14)amide] | – | 160 | -6.1 Log M and 0.83 µM | 250 | -6 Log M and 4.66 µM | 243 | -3.9 Log M and 126 µM | 100 | 100 | –

Further lines, results first:

Row | cAMP EC50, ROS 17/2.8 cells [1] [Log M] | cAMP potency relative to native PTH(1-14), LLC-PK1 cells stably expressing the hPTH-1 receptor [2] [fold] | cAMP EC50, HKRK-B7 cells [3] | cAMP Emax, COS-7 cells, hDeINt (picomole/well) [4] | cAMP EC50, COS-7 cells, WT hPTH-1 receptor [5] | cAMP Emax, COS-7 cells, WT hPTH-1 receptor [5] [picomole/well] | cAMP EC50, LLC-P2R-22 cells [6] | cAMP potency relative to native PTH(1-14), LLC-PK-1 cells stably expressing the hPTH-1 receptor [2] [fold] | cAMP potency relative to native PTH(1-14), truncated hPTH-1 receptor [4] [fold] | cAMP EC50, SAOS-2 cells [7] | Binder
5 | – | – | -6.1 Log M and 0.8 µM | – | – | – | – | – | – | – | AVAEIQLMHQRAKH-NH2 [[A3,Q10,R11,A12]rPTH(1-14)]
6 | – | – | -8.6 Log M and 0.0033 µM | 243 | -9.2 Log M and 0.0007 µM | 226 | -8.4 Log M and 0.0044 µM | – | – | – | AVSEIQL[Nle]HNLGKHLASVER[Nle]QWLRKKLQDVHNY-NH2 [[Nle^8,21,Tyr^34]-rPTH(1-34)NH2]
7 | – | – | -5 Log M and 10.2 µM | – | – | – | -3.5 Log M and 342 µM | – | – | – | AVAEIQLMHARA-NH2 [[A3,A10,R11,A12]rPTH(1-12)]
8 | – | – | -8.4 Log M and 0.004 µM | 238 | -9.3 Log M and 0.0005 µM | 226 | – | – | – | -9.28 Log M and 0.00052 µM | SVSEIQLMHNLGKHLNSMERVEWLRKKLQDVHNY-NH2 [[Tyr^34]human (h)PTH(1-34)NH2]
9 | – | – | -5.6 Log M and 2.4 µM | – | – | – | -4 Log M and 106 µM | – | – | – | AVAEIQLMHARAK-NH2 [[A3,A10,R11,A12]rPTH(1-13)]
